# Where two headings read alike, the source gives them in different places. Where no end group is shown, it is not given here.
# B1: ANSRWQVTRV (second entry) (peptide)
# chain: ANSRWQVTRV
# B2: ANSRWQVTRV (peptide)
# chain: ANSRWQVTRV
# B3: Ac-WPVTRV (peptide)
# chain: Ac-WPVTRV
# B4: iCAL42 ANSRLPTSII (peptide)
# chain: ANSRLPTSII
# B5: kCAL01 (peptide)
# chain: Ac-WQVTRV
# B6: ANSRLPTS[K-AEBA]I (peptide)
# chain: ANSRLPTSKI
# B7: ANSRLPTS[Ac-K]I (peptide)
# chain: ANSRLPTSK(Ac)I
# B8: Ac-LPVTRV (peptide)
# chain: Ac-LPVTRV
# How the values were obtained:
# NHERF-1 PDZ1 = target: T1, NHERF-1 PDZ1 (human, UniProt O14745); assay: FP, competition
# T1 chain: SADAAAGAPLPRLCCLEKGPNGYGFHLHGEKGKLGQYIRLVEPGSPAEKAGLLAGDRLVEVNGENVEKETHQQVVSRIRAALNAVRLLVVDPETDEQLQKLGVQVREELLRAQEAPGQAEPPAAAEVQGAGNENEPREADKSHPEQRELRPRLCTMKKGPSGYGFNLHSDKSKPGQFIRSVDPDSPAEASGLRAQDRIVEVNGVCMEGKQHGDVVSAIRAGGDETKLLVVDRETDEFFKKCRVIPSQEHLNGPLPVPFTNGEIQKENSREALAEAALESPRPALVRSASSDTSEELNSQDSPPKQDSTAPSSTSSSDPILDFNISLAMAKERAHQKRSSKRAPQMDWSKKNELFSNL
# CAL PDZ [1] = target: T2, CAL PDZ (human, UniProt Q9HD26); assay: FP, competition
# TIP-1 = target: T3, TIP-1 (human, UniProt O14907); assay: FP, competition
# T3 chain: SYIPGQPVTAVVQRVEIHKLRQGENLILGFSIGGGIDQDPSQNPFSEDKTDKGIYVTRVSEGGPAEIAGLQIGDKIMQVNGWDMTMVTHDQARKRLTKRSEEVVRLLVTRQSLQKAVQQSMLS
# NHERF-1 PDZ2 = target: T4, NHERF-1 PDZ2 (human, UniProt O14745); assay: FP, competition
# T4 chain: T1 chain
# CAL PDZ [2] = target: T2, CAL PDZ
Binder,Ki (NHERF-1 PDZ1) [µM],Ki (CAL PDZ [1]) [µM],Ki (TIP-1) [µM],Ki (NHERF-1 PDZ2) [µM],Ki (CAL PDZ [2]) [µM]
B1,2.8,1.13,0.057,,
B2,2.8,1.17,0.057,208,
B3,,1.22,0.258,,
B4,> 5000,,> 5000,> 5000,
B5,,,,,~1
B6,> 5000,,> 5000,> 5000,
B7,> 5000,,> 5000,> 5000,
B8,,4.42,> 5000,,

# — patent US20180318382 (published 2018)
